Results from publication doi:10.1101/2025.03.13.643050.

Key:
[1] = molecular target: prf.GLFG_(52×12), Nup98-type FG domain comprising 52 perfect 12mer GLFG repeat units; assay: FG phase partitioning
[2] = molecular target: FG repeat domain of 669 residues with non-charged spacers and 36 FSFG motifs; assay: FG phase partitioning

Substance	partition coefficient [1]	fold reduction of partitioning against wild type [1] [fold]	also measured
20 nm T1 pentamer-only capsid spheres of HIV-1 CA G60A, G61P, labelled with ~15% CA-EGFP (complex)	750	–	–
40 nm capsid spheres of HIV-1 CA N21C, A22C, labelled with ~15% CA-EGFP (complex)	1000	–	–
EGFP	< 0.1	–	–
conical CLPs (capsid-like particles) of HIV-1 CA wild-type, labelled with ~15% CA-EGFP (complex)	1000	–	–
conical CLPs of HIV-1 CA A88E, filled with sinGFP4a (complex)	–	> 10	–
conical CLPs of HIV-1 CA A92E, filled with sinGFP4a (complex)	–	> 10	partitioning relative to the wild-type level [1]: 5%
conical CLPs of HIV-1 CA G89V, filled with sinGFP4a (complex)	–	–	fold more effective entry than wild-type CLPs [2]: 4 fold
conical CLPs of HIV-1 CA G94D, filled with sinGFP4a (complex)	–	–	partitioning relative to the wild-type level [1]: 5%
conical CLPs of HIV-1 CA H87E, filled with sinGFP4a (complex)	–	15	–
conical CLPs of HIV-1 CA H87Q, filled with sinGFP4a (complex)	–	–	reduction in partitioning against wild type [1]: 50%
conical CLPs of HIV-1 CA I91E, filled with sinGFP4a (complex)	–	> 10	–
conical CLPs of HIV-1 CA M96E, filled with sinGFP4a (complex)	–	> 10	–
conical CLPs of HIV-1 CA R132K, filled with sinGFP4a (complex)	–	–	reduction in partitioning against wild type [1]: 50%
conical CLPs of HIV-1 CA V86E, filled with sinGFP4a (complex)	–	> 10	–
mCherry	< 0.1	–	–
